# Results from USRE44359 (Hoffmann-La Roche Inc, dated 2013).
# B1: HuMab 017 (antibody, V domains shown)
# VH: QPQLVQSGAEVKKPGASVKVSCKVSGNTLTELSMHWVRQAPGKGLEWMGGFDPENGEAIYAQKFQGRVTMTADTSTDTAYMDLSSLRSEDTAVYYCATDLAGGSDFYYYGLDVWGQGTTVTVSS
# VL: AIQLTQSPSSLSASVGDRVTITCRASQGISSALAWYQQKPGKAPKLLIYDASSLESGVPSRFSGSGSGTDFTLTISSLQPEDFATYYCQQFNSYPYTFGQGTKLEIK
# notes: Human monoclonal antibody; kappa light and gamma1 heavy chains by the cloning section; also called antibody 017; LC 1004-017
# Biological target: T1, Recombinant P-selectin (R&D Systems) (human, UniProt P16109 42-771)
# T1 construct: extracellular domain; also called recombinant human P-selectin; recombinant truncated form of P-selectin
# T1 sequence (looked up): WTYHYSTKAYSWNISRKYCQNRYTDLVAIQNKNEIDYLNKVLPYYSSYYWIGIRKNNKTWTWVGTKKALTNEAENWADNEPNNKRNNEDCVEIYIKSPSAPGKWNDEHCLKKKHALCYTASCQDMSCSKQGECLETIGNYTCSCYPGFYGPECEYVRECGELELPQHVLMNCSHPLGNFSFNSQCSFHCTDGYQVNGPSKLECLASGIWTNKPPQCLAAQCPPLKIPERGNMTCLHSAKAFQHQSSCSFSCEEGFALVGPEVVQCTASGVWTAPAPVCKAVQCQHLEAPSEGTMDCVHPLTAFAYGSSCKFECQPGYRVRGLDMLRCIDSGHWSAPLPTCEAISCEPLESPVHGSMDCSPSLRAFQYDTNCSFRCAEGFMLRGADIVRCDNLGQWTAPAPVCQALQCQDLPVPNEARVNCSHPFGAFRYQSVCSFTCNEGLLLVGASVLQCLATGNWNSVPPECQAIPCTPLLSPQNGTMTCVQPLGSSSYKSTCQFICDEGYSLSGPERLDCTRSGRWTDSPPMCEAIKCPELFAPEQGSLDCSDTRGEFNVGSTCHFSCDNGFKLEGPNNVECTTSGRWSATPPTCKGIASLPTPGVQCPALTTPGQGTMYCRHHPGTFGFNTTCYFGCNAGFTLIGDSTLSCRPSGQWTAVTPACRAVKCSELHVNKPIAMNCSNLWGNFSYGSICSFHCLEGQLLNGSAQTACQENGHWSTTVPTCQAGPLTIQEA
# Assay: SPR, BIACORE 2000; antibody captured by anti-human Fcγ on CM5, recombinant P-selectin 0-50 nM as analyte; 1:1 Langmuir fit
binder,measurement,value
B1,Ka,5.59e+09 M⁻¹
